Reference: patent US12459987B2, “Monoclonal antibodies for prevention and treatment of herpes simplex viral infections” (priority 2019, dated 2025)
Changes are numbered by the printed parent chain.

B1: HSV010-20: gB-1 specific mouse monoclonal IgG; IgH SEQ ID NO: 64, IgL SEQ ID NO: 66 (antibody, V domains shown)
VH: DVQLQESGPGMVRPSQSLSLTCTVTGYSITSGYDWHWIRHFPGNKLEWMGYISYSGLTNYNPSLRSRFSITHDTSKNHFFLKLNSVTTEDTATYYCARGPPWYFDVWGTGTTVTVSSA
VL: DIVMTQSQKFMSTSVGGRVSITCKASQIVRATVAWYQQKPGQSPKPLIYLASNRHTGVPDRFTGSGSGTDFTLTISNVQSEDLADYFCLQYWNYPYTFGGGTKLEIKR
modifications: HSV010-20 heavy chain; HSV010-20 light chain
B2: HSV010-16: gB-1 specific mouse monoclonal IgG; IgH SEQ ID NO: 76, IgL SEQ ID NO: 78 (antibody, V domains shown)
VH: QIQLVQSGPELKKPGETVKISCKASGYTFTTYGMSWVKQAPGKDLKWMGWINTYSGVSTYGDDFKGRFALSLETSASTAYLQINNLKNEDTATYFCAQLNYGMDYWGQGTSVTVSSA
VL: DIVMTQSHKFMSTSVGDRVSITCKASQDVSTSLAWYQQKPGQSPKLLIYSASYRYTGVPDRFTGSGSGTDFTFTISSVQAEDLAVYYCHQHYSIPRTFGGGTKLEIKR
modifications: HSV010-16 heavy chain; HSV010-16 light chain
B3: HSV010-4: gB-1 specific mouse monoclonal IgG; IgH SEQ ID NO: 32, IgL SEQ ID NO: 34 (antibody, V domains shown)
VH: QVQLKESGPGLVAPSQSLSITCTVSGFSLSRHDVSWVRQPPGKGLEWLGVIWGDGSTNYHSALISRLSISKDNSKSQVFLKLNSLQNDDTATYYCAKEDYGIFPYWGQGTLVTVSAA
VL: DIKMTQSPSSMYASLGEKVTITCKASQDISSYLSWFQQKPGKSPKTLIYRANRLVDGVPSRFSGSGSGQDYSLSISSLDYEDMGIYYCLQYDEFPLTFGAGTKLELKR
modifications: HSV010-4 heavy chain; HSV010-4 light chain
B4: HSV010-8: gB-1 specific mouse monoclonal IgG; IgH SEQ ID NO: 68, IgL SEQ ID NO: 70 (antibody, V domains shown)
VH: B3 VH with S30N, R31N, H32Y, N87T
VL: B3 VL with K18R, S30N, S74T, D79E, D82N
modifications: HSV010-8 heavy chain; HSV010-8 light chain
B5: HSV010-7: gB-1 specific mouse monoclonal IgG; IgH SEQ ID NO: 36, IgL SEQ ID NO: 38 (antibody, V domains shown)
VH: QVQLQQSGPELVKPGASVKLSCKASGYTFTNYDINWVKQRPGQGLEWIGWIYPRDGSTKYNEKFKGKATLTIDTSSSTAYMELHSLTSEDSAVYFCARGIFYVNYDVYWGQGTLVTVSAA
VL: DIQMTQSSSFLSVSLGGRVTITCKASDHINNWLAWYQQKPGHAPRLLISGAASLETGVPSRFSGSGSGKDYTLTITSLQTEDVATYYCQQYWSSPLTFGGGTKLELKR
modifications: HSV010-7 heavy chain; HSV010-7 light chain
B6: HSV010-34: gB-1 specific mouse monoclonal IgG; IgH SEQ ID NO: 40, IgL SEQ ID NO: 42 (antibody, V domains shown)
VH: EVQLVESGGGLVQPGESLKLSCESNEYEFPSHDMSWVRKTPEKRLELVAAINSDGGSTYYPDTMERRFIISRDNTKKTLYLQMSSLRSEDTALYYCARHSSGYVLDYWGQGTSVTVSSA
VL: B5 VL with F10Y, N31H, H42N, A52T, T74S, T76A, S94T, L96Y, L106I
modifications: HSV010-34 heavy chain; HSV010-34 light chain
B7: HSV010-15: gB-1 specific mouse monoclonal IgG; IgH SEQ ID NO: 72, IgL SEQ ID NO: 74 (antibody, V domains shown)
VH: QVQLQQPGAELVKPGASVKLSCKASGYTFTSYWIHWVQQRPGQGLEWIGMIHPNSGITNYSEKFKSKATLTLDKSSSTAYMQLISLTSEDSAVYYCARGSSSGSAWFAYWGQGTLVTVSAA
VL: B5 VL with F10Y, A34P, H42N, A52T, T74S, G100A
modifications: HSV010-15 heavy chain; HSV010-15 light chain
B8: HSV010-9: gB-1 specific mouse monoclonal IgG; IgH SEQ ID NO: 48, IgL SEQ ID NO: 50 (antibody, V domains shown)
VH: B7 VH with A24S, I34M, Q38K, N59H, S61N, S66T, L72V, I84S, Y94S, S101N
VL: B5 VL with F10Y, H42N, A52T, T74S, S94T, G100A
modifications: HSV010-9 heavy chain; HSV010-9 light chain
B9: HSV010-6: gB-1 specific mouse monoclonal IgG; IgH SEQ ID NO: 44, IgL SEQ ID NO: 46 (antibody, V domains shown)
VH: B7 VH with S31N, Q38K, S55I, N59H, K63R, L72V, S77T, I84S, S101D
VL: B5 VL with F10Y, Q37L, H42N, I48M, A52T, T74S, S94T, G100A
modifications: HSV010-6 heavy chain; HSV010-6 light chain

tested on: HSV-2 G infected cell lysates; assay: ELISA binding of recombinant antibodies to HSV-2 G infected cell lysates; set-up: species or system HSV-2 G strain; conditions: Table 3 summary
Procedure: Binding of recombinant antibodies to HSV-2 G lysates was tested by ELISA. Both heavy and light chain V(D)J rearrangements were amplified from selected single B-cell culture wells (22D10, 32H6, 33B8, and 35H7) by standard RT-PCR. These cloned V(D)J rearrangements were introduced into expression vectors. Recombinant antibodies were obtained by co-transfection of these expression vectors into Expi293F cells. ≥4 mg of purified IgGs was obtained (not shown). […]
Briefly, mice were vaccinated with ΔgD-2 and then 16 days after vaccination, the draining, inguinal lymph nodes were harvested. GC B cells were isolated from these tissues and were cultured in Nojima cultures. Although overall cloning efficiency of GC B cells from these (shipped) tissues was lower than those from freshly isolated tissues (6% vs. 20%), 50 GC clones were obtained that were specific to HSV-2 G strain (HSV-2 G or HSV2-G) lysate. GC B cells from inguinal lymph nodes of mice vaccinated with ΔgD-2 were sorted directly into 96-well plates (1 cell/well). These GC B cells were then cultured in the presence of NB-21.2D9 feeder cells. After culture, presence of IgG was first determined by ELISA, and then the reactivity of culture supernatant IgG against HSV-2 G lysates (HSV-2 G) and uninfected Vero lysates were tested by ELISA.
Based on the obtained V(D)J sequences from each B-cell culture, paired heavy and light chains were re-expressed (as recombinant mouse IgG1 and IgG2c antibodies) in Expi293F cells (Kuraoka et al. Immunity 2016; DiLillo et al. Nature Medicine 2013). […] As expected, all recombinant antibodies reacted specifically with HSV-2 G lysates (FIG. 3). […] Binding of recombinant antibodies to HSV-2 G lysates was tested by ELISA. Both heavy and light chain V(D)J rearrangements were amplified from selected single B-cell culture wells (22D10, 32H6, 33B8, and 35H7) by standard RT-PCR. These cloned V(D)J rearrangements were introduced into expression vectors. Recombinant antibodies were obtained by co-transfection of these expression vectors into Expi293F cells. ≥4 mg of purified IgGs was obtained (not shown). […] These recombinant antibodies (≥4 mg each) were tested for identification of reacting antigen(s), in an in vitro FcγRIV activation assay (Promega FcγRIV ADCC Reporter Bioassay)(FIG. 4), and in vivo protection assay. […]

Q: With B1 as the molecule, how does the “Binding to HSV-lysate” value read?
A: Yes

Q: For B2, which “Binding to HSV-lysate” value is on record?
A: Yes

Q: With B3 as the molecule, how does the “Binding to HSV-lysate” value read?
A: Yes

Q: Which “Binding to HSV-lysate” value does the source give for B4 here?
A: Yes

Q: How did the “Binding to HSV-lysate” value turn out when B5 was run?
A: Yes

Q: Which “Binding to HSV-lysate” value does the source give for B6 here?
A: Yes

Q: With B7 as the molecule, how does the “Binding to HSV-lysate” value read?
A: Yes

Q: Which “Binding to HSV-lysate” value does the source give for B8 here?
A: Yes

Q: For B9, which “Binding to HSV-lysate” value is on record?
A: Yes

target: gB-1 (Human herpesvirus 1, UniProt P10211); assay: Luminex competition: inhibition of binding of BMPC-23 human IgG to gB-1; set-up: species or system HSV-1; conditions: BMPC-23 human IgG 2 ng/ml
Procedure: FIGS. 10A-10G show the capacity of gB-1 specific mouse monoclonal IgG antibodies to inhibit binding of BMPC-23 human IgG antibodies to gB-1.
Finding BMPC-like antibodies. Nine out of 10 gB-1 specific mouse monoclonal IgG antibodies in FIG. 3 were tested for their capacity to inhibit binding of BMPC-23 human IgG antibodies to gB-1. Serially diluted, gB-1 specific mouse monoclonal antibodies or irrelevant, control mouse antibody (H33Lγ1) were incubated with gB-1 conjugated Luminex beads. After incubation, fixed concentration (2 ng/ml) of BMPC-23 human IgG antibodies were added to each well. After washing, mouse anti-human lgG-PE was added to detect binding of human BMPC-23 antibodies. […] Strong inhibition by HSV010-4 (>95% at 222 ng/ml), HSV010-7 (>90% at 222 ng/ml), and HSV010-34 (>80% at 222 ng/ml), shown in FIGS. 10B, 10F, and 10G, respectively, indicates these antibodies bind epitopes on gB-1 closely overlapping with the one recognized by BMPC-23. Therefore, similar protective efficacy as BMPC-23 is expected from these antibodies (experiments in progress). […] Protective efficacy of these antibodies need to be tested (experiments in progress).

Q: B1 was tested. Which “Inhibition of binding of BMPC-23 human IgG antibodies to gB-1 (in words)” value did it give?
A: No inhibition

same assay, conditions: Table 3 summary

Q: Which “Competition with BMPC-23” value does the source give for B1 here?
A: No

Q: Which “Competition with BMPC-23” value does the source give for B3 here?
A: Strong

Q: How did the “Competition with BMPC-23” value turn out when B5 was run?
A: Strong

Q: With B6 as the molecule, how does the “Competition with BMPC-23” value read?
A: Strong

Q: With B8 as the molecule, how does the “Competition with BMPC-23” value read?
A: Weak

Q: How did the “Competition with BMPC-23” value turn out when B9 was run?
A: Weak

target: glycoprotein B of HSV-1 (gB-1) (Human herpesvirus 1, UniProt P10211); assay: Luminex multiplex assay, binding to gB-1; conditions: Table 3 summary
Procedure: FIGS. 9A and 9B are graphs of median fluorescence intensity (MFI) versus IgG concentration (ng/ml), showing the binding of various recombinant antibodies to gB-1 as measured by Luminex multiplex assay.
BMPC-23 binds HSV-1 gB (gB-1). The gB-1 binding of the antibodies was determined by Luminex multiplex assay. Mixtures of antigen (gB-1)-conjugated microspheres (1,000 counts each) were added to each well of 96-well filter plates (Millipore). After washing with PBS containing 1% BSA, 0.05% Tween 20 and 0.05% NaN3, serially diluted recombinant antibodies (5E7, 19G7, 18G4, 22E10, 3A2, 17G3, 22D10, 32H6, 33B8, 25H7, BMPC-23, and S5V2-29) were added to the plates and incubated for 2 hours at room temperature, with mild agitation of the plates. Samples were diluted in PBS containing 1% cow milk, 1% BSA, 0.05% Tween 20 and 0.05% NaN3. After washing, PE goat anti-mouse IgG was added to the plates and incubated for 1 hour at room temperature with mild agitation. After washing, microspheres were resuspended in PBS containing 1% BSA, 0.05% Tween 20 and 0.05% NaN3 and fluorescent signals from each microsphere were measured in a Bio-Plex® 3D machine.
Finding gB-1 specific HSV antibodies. After Nojima culture (single B-cell culture), HSV-specific antibodies were cloned from germinal center B cells and tested for binding to HSV-1 gB-1 by Luminex multiplex assay as described above. FIGS. 9A and 9B show the gB-1 binding results for 10 antibodies in comparison with BMPC-23. With the exception of BMPC-23, the antibodies in Table 3 were derived from germinal center B cells (lymph nodes) taken 15-17 days after primary vaccination with ΔgD-2. BMPC-23 was derived from bone marrow plasmacytes taken 2 weeks post-boost with ΔgD-2. Nucleotide sequences and amino acid sequences for the heavy-chains and light chains are shown in Table 4, as are the amino acid sequences for the light chain and heavy chain CDR1, CDR2, and CDR3.

Q: How did the Target antigens turn out when B1 was run?
A: gB

Q: With B2 as the molecule, how does the Target antigens read?
A: gB

Q: Which Target antigens does the source give for B3 here?
A: gB

Q: With B4 as the molecule, how does the Target antigens read?
A: gB

Q: How did the Target antigens turn out when B5 was run?
A: gB

Q: With B6 as the molecule, how does the Target antigens read?
A: gB

Q: How did the Target antigens turn out when B7 was run?
A: gB

Q: How did the Target antigens turn out when B8 was run?
A: gB

Q: Which Target antigens does the source give for B9 here?
A: gB
